# Results reported in patent US20230220042A1 (SHANGHAI JIAO TONG UNIVERSITY SCHOOL OF MEDICINE, published 2023).
# Substitutions are numbered along the chain they refer to. Numbers in names are those of the source.
# B1: human IgG2 anti-mouse CD40 surface displayed antibody, P271G (antibody, name in EU numbering)
# light chain (with the P2A rest): DTVLTQSPALAVSPGERVTISCRASDSVSTLMHWYQQKPGQQPKLLIYLASHLESGVPARFSGSGSGTDFTLTIDPVEADDTATYYCQQSWNDPWTFGGGTKLELKRTVAAPSVFIFPPSDEQLKSGTASVVCLLNNFYPREAKVQWKVDNALQSGNSQESVTEQDSKDSTYSLSSTLTLSKADYEKHKVYACEVTHQGLSSPVTKSFNRGECGSGATNFSLLKQAGDVEENPG
# heavy chain: EVQLVESDGGLVQPGRSLKLPCAASGFTFSDYYMAWVRQAPTKGLEWVASISYDGSSTYYRDSVKGRFTISRDNAKSTLYLQMDSLRSEDTATYYCGRHSSYFDYWGQGVMVTVSSASTKGPSVFPLAPCSRSTSESTAALGCLVKDYFPEPVTVSWNSGALTSGVHTFPAVLQSSGLYSLSSVVTVPSSNFGTQTYTCNVDHKPSNTKVDKTVERKCCVECPPCPAPPVAGPSVFLFPPKPKDTLMISRTPEVTCVVVDVSHEDGEVQFNWYVDGVEVHNAKTKPREEQFNSTFRVVSVLTVVHQDWLNGKEYKCKVSNKGLPAPIEKTISKTKGQPREPQVYTLPPSREEMTKNQVSLTCLVKGFYPSDIAVEWESNGQPENNYKTTPPMLDSDGSFFLYSKLTVDKSRWQQGNVFSCSVMHEALHNHYTQKSLSLSPGKLEPPPSTVSNMATVAVLVVLGAAIVTGAVVAFVMKMRRRNTGGKGGDYALAPGSQTSDLSLPDCKVMVHDPHSLA
# notes: m1 with this Fc mutation (Eu numbering); copies: 2 + 2
# B2: human IgG2 anti-mouse CD40 surface displayed antibody, L328M (antibody, name in EU numbering)
# light chain (with the P2A rest): B1 light chain (with the P2A rest)
# heavy chain: B1 heavy chain with G266P, L323M
# notes: as for B1
# B3: human IgG2 anti-mouse CD40 surface displayed antibody, P271A/S298R (antibody, name in EU numbering)
# light chain (with the P2A rest): B1 light chain (with the P2A rest)
# heavy chain: B1 heavy chain with G266A, S293R
# notes: m1 with these Fc mutations (Eu numbering); copies: 2 + 2
# B4: human IgG2 anti-mouse CD40 surface displayed antibody, P271G/P329S (antibody, name in EU numbering)
# light chain (with the P2A rest): B1 light chain (with the P2A rest)
# heavy chain: B1 heavy chain with P324S
# notes: as for B3
# B5: human IgG2 anti-mouse CD40 surface displayed antibody, P271G/P331C (antibody, name in EU numbering)
# light chain (with the P2A rest): B1 light chain (with the P2A rest)
# heavy chain: B1 heavy chain with P326C
# notes: as for B3
# B6: human IgG2 anti-mouse CD40 surface displayed antibody, P271G/P331T (antibody, name in EU numbering)
# light chain (with the P2A rest): B1 light chain (with the P2A rest)
# heavy chain: B1 heavy chain with P326T
# notes: as for B3
# B7: human IgG2 anti-mouse CD40 surface displayed antibody, P271G/S298D (antibody, name in EU numbering)
# light chain (with the P2A rest): B1 light chain (with the P2A rest)
# heavy chain: B1 heavy chain with S293D
# notes: as for B3
# B8: human IgG2 anti-mouse CD40 surface displayed antibody, P271G/S298E (antibody, name in EU numbering)
# light chain (with the P2A rest): B1 light chain (with the P2A rest)
# heavy chain: B1 heavy chain with S293E
# notes: as for B3
# B9: human IgG2 anti-mouse CD40 surface displayed antibody, P271G/S298G (antibody, name in EU numbering)
# light chain (with the P2A rest): B1 light chain (with the P2A rest)
# heavy chain: B1 heavy chain with S293G
# notes: as for B3
# B10: human IgG2 anti-mouse CD40 surface displayed antibody, P271G/S298K (antibody, name in EU numbering)
# light chain (with the P2A rest): B1 light chain (with the P2A rest)
# heavy chain: B1 heavy chain with S293K
# notes: as for B3
# B11: human IgG2 anti-mouse CD40 surface displayed antibody, P271G/S298L (antibody, name in EU numbering)
# light chain (with the P2A rest): B1 light chain (with the P2A rest)
# heavy chain: B1 heavy chain with S293L
# notes: as for B3
# B12: human IgG2 anti-mouse CD40 surface displayed antibody, P271G/S298N (antibody, name in EU numbering)
# light chain (with the P2A rest): B1 light chain (with the P2A rest)
# heavy chain: B1 heavy chain with S293N
# notes: as for B3
# B13: human IgG2 anti-mouse CD40 surface displayed antibody, P271G/S298R (antibody, name in EU numbering)
# light chain (with the P2A rest): B1 light chain (with the P2A rest)
# heavy chain: B1 heavy chain with S293R
# notes: as for B3
# B14: human IgG2 anti-mouse CD40 surface displayed antibody, P271G/T299A (antibody, name in EU numbering)
# light chain (with the P2A rest): B1 light chain (with the P2A rest)
# heavy chain: B1 heavy chain with T294A
# notes: as for B3
# B15: human IgG2 anti-mouse CD40 surface displayed antibody, P271G/T299M (antibody, name in EU numbering)
# light chain (with the P2A rest): B1 light chain (with the P2A rest)
# heavy chain: B1 heavy chain with T294M
# notes: as for B3
# B16: human IgG2 anti-mouse CD40 surface displayed antibody, P271G/T299S (antibody, name in EU numbering)
# light chain (with the P2A rest): B1 light chain (with the P2A rest)
# heavy chain: B1 heavy chain with T294S
# notes: as for B3
# B17: human IgG2 anti-mouse CD40 surface displayed antibody, P271G/T299W (antibody, name in EU numbering)
# light chain (with the P2A rest): B1 light chain (with the P2A rest)
# heavy chain: B1 heavy chain with T294W
# notes: as for B3
# B18: human IgG2 anti-mouse CD40 surface displayed antibody, P271Q (antibody, name in EU numbering)
# light chain (with the P2A rest): B1 light chain (with the P2A rest)
# heavy chain: B1 heavy chain with G266Q
# notes: as for B1
# B19: human IgG2 anti-mouse CD40 surface displayed antibody, S267E (antibody, name in EU numbering)
# light chain (with the P2A rest): B1 light chain (with the P2A rest)
# heavy chain: B1 heavy chain with S262E, G266P
# notes: as for B1
# B20: human IgG2 anti-mouse CD40 surface displayed antibody, S267E/S298R (antibody, name in EU numbering)
# light chain (with the P2A rest): B1 light chain (with the P2A rest)
# heavy chain: B1 heavy chain with S262E, G266P, S293R
# notes: as for B3
# B21: human IgG2 anti-mouse CD40 surface displayed antibody, S267R (antibody, name in EU numbering)
# light chain (with the P2A rest): B1 light chain (with the P2A rest)
# heavy chain: B1 heavy chain with S262R, G266P
# notes: as for B1
# B22: human IgG2 anti-mouse CD40 surface displayed antibody, S267V/S298L (antibody, name in EU numbering)
# light chain (with the P2A rest): B1 light chain (with the P2A rest)
# heavy chain: B1 heavy chain with S262V, G266P, S293L
# notes: as for B3
# B23: human IgG2 anti-mouse CD40 surface displayed antibody, S298L (antibody, name in EU numbering)
# light chain (with the P2A rest): B1 light chain (with the P2A rest)
# heavy chain: B1 heavy chain with G266P, S293L
# notes: as for B1
# Tests used:
# FcγRIIA^131H = molecular target: T1, FcγRIIA^131H (human, UniProt P12318 34-217, biotin-labeled); assay: ELISA, coated antibody, biotin-FcγR
# T1 construct: extracellular domain; Bought protein; also called RIIAH
# T1 sequence (looked up): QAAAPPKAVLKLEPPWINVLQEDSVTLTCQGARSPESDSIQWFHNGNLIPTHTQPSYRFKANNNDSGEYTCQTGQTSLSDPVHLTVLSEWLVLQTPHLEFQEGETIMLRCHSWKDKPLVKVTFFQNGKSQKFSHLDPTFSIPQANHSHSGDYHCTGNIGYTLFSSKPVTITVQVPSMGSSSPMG
# Procedure: (§1) One hundred μl (2 μg/mL) of antibody or mutant thereof were added to the enzyme-linked plate to be coated overnight, then the supernatant was discarded. The plate was blocked with PBS containing 1% BSA for 2 hours, and washed with PBST (PBS containing 0.05% Tween 20). Biotin-labeled FcγR extracellular domain protein (Beijing Sino Biological Co., Ltd) of appropriate concentration was added and incubated at room temperature for 1 hour, then the supernatant was discarded and the plate was washed with PBST. The Biotin-labeled protein was detected by incubating with Streptavidin-HRP (BD BioSciences) at room temperature for 1 hour. The supernatant was removed, and the color-developing solution was added for color development for 20-40 minutes to determine the absorbance of 650 nm (A650).
# (§2) Anti-human OX40 antibodies containing these new Fc mutation combinations are expressed and the binding property of the mutant antibody to FcγR are analyzed by Enzyme-linked immunosorbent assay (ELISA).
# FcγRIIA^131R = molecular target: T2, FcγRIIA^131R (human, UniProt P12318 34-217, biotin-labeled); assay: ELISA, coated antibody, biotin-FcγR
# T2 construct: extracellular domain; Bought protein; also called RIIAR
# T2 sequence (looked up): T1 sequence (looked up) with H134R
# Procedure: as §1, §2
# FcγRIIIA^158V = molecular target: T3, FcγRIIIA^158V (human, UniProt P08637 17-208, biotin-labeled); assay: ELISA, coated antibody, biotin-FcγR
# T3 construct: extracellular domain; Bought protein; also called RIIIAV; CD16a 158V
# Procedure: as §1, §2
# FcγRIIB = molecular target: T4, FcγRIIB (human, UniProt P31994 43-217, biotin-labeled); assay: ELISA, coated antibody, biotin-FcγR
# T4 construct: extracellular domain; Bought protein; also called CD32b
# T4 sequence (looked up): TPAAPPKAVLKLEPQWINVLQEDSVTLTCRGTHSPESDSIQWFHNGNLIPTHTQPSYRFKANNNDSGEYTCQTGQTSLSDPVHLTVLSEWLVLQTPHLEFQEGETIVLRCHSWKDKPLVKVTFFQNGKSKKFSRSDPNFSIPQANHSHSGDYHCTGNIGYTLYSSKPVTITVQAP
# Procedure: as §1, §2
# FcγRI = molecular target: T5, FcγRI (human, UniProt P12314 16-292, biotin-labeled); assay: ELISA, coated antibody, biotin-FcγR
# T5 construct: extracellular domain; Bought protein; also called CD64
# Procedure: as §1, §2
# FcγRIIIA^158F = molecular target: T6, FcγRIIIA^158F (human, UniProt P08637 17-208, biotin-labeled); assay: ELISA, coated antibody, biotin-FcγR
# T6 construct: extracellular domain; Bought protein; also called RIIIAF
# Procedure: as §1, §2
# [1] = molecular target: T7, Biotin-FcγRIIB (human FcγRIIB, Sino Biological) (human, UniProt P31994 43-217, limits assumed, biotin-labeled); assay: NGS after FACS sort of 3T3-displayed LibraryMix for biotin-FcγRIIB binding
# T7 construct: Used at 1 µg/ml with Streptavidin-APC for flow cytometry and sorting; also called CD32b
# T7 sequence (looked up): T4 sequence (looked up)
# T5 sequence (P12314 16-292): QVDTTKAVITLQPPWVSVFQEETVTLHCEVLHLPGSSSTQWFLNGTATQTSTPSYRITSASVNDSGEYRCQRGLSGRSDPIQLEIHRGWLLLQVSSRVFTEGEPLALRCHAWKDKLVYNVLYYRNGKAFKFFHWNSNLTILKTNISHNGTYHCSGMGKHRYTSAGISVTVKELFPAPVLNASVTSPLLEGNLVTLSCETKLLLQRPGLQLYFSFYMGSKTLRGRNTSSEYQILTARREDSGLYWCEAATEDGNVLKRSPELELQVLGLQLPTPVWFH
# T6 sequence (P08637 17-208): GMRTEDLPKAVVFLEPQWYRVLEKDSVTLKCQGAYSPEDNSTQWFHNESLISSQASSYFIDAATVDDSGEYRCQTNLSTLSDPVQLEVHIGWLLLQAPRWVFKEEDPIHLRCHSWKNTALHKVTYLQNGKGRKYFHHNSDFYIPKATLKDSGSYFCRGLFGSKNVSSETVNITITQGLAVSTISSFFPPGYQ
# T3 sequence (P08637 17-208 F176V): as the sequence (P08637 17-208) above, with F160V counted along it
Molecule,Enrichment factor (percentage after sorting/percentage before sorting) [1],Increased factor (enrichment factor/wild-type enrichment factor) [1],also measured
IgG1 (antibody),,,Absorbance value (FcγRIIA^131H): 0.57 A650; Absorbance value (FcγRIIA^131R): 0.26 A650; Absorbance value (FcγRIIIA^158V): 0.96 A650; Absorbance value (FcγRIIB): 0.76 A650; Absorbance value (FcγRI): 2.66 A650; Absorbance value (FcγRIIIA^158F): 0.19 A650
B1,68.9,92.1,
B2,24.9,33.3,
B3,2.45,3.27,
B4,46.2,61.8,
B5,140,187,
B6,32.3,43.2,
B7,6.78,9.06,
B8,298,398,
B9,9.73,13,
B10,10.2,13.6,
B11,188,252,
B12,18,24,
B13,16,21.4,
B14,6.28,8.39,
B15,4.74,6.33,
B16,12,16,
B17,9.23,12.3,
B18,1.65,2.21,
B19,217,290,
B20,32.8,43.8,
B21,1.52,2.03,
B22,2.09,2.8,
B23,2.18,2.91,
